Here are results for 1 substance from US20230133775A1.

The assay has as its target Leucine-rich repeat-containing protein 15 (LRRC15) on LRRC15-expressing cells (UniProt Q8TF66). The experiment in a line: cell-based or functional assay.

Some results are limits rather than exact numbers.

Leucine-rich repeat-containing protein 15 (LRRC15) on LRRC15-expressing cells, sequence (Q8TF66 22-581 limits assumed): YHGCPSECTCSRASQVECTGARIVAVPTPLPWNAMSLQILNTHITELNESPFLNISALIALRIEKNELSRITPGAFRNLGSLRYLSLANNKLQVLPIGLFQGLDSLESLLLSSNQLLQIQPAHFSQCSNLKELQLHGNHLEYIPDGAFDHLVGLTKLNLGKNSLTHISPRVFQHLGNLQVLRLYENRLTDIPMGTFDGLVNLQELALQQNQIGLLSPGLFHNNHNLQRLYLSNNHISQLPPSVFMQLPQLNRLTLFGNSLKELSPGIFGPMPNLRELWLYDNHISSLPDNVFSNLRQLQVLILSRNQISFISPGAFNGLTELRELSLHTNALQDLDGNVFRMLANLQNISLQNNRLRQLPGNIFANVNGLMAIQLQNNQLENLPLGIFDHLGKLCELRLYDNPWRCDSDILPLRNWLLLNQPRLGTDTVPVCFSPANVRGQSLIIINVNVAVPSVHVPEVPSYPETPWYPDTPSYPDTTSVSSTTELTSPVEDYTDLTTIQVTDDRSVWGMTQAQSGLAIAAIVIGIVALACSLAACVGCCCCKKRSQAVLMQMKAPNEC

As to “non-specific low fucose isotype control (IgG1-LF) (antibody)”, the target cell death in the ADCC assay with NK92-CD16 effector cells was less than 30%.
